Experiment: soluble on expression in E. coli; label from the status in PepcDB or PDB records

Sequence	soluble on expression in E. coli
MGSDKIHHHHHHMTHPALIDELQALADPGKVLTDAGSLETYGKDWTRQFTPAPLAIVFPKTTEQVQAIVRWANERLVALVPSGGRTGLSAAAVAANGEVVVSFDYMNQVLELNLTDRTAVCQPGVITRQLQALAEDNGLYYPVDFASSGSSQIGGNIGTNAGGIKVIRYGMTRNWVAGLKVVTGKGDLLELNKDLIKNATGYDLRQLFIGAEGTLGFVVEATMRLDRAPKNLTAMVLGTTDFNSIMPVLHAFHGKLDLTAFEFFSDKSFARVMARGDVPSPFDTPCPFYVLLEFEATTEDLADQALATFEHCVEQGWVLDGVMSQSEQQLRNLWKLREYISETISHFTPYKNDISVSVSKVPEFLAEIDAIVAEYYPDFEVLWYGHIGDGNLHLNILKPENLDKDEFFVKCARVNKWVFETVEKYNGSISAEHGVGMTKRDYLTYSRSPVEIEYMKALKAVFDPNGIMNPGKIFAV	not soluble
APAADAAQAHDPLSVQTGSDIPASVHMPTDQQRDYIKREVMVPMRDGVKLYTVIVIPKNARNAPILLTRTPYNAKGRANRVPNALTMREVLPQGDDVFVEGGYIRVFQDIRGKYGSQGDYVMTRPPHGPLNPTKTDETTDAWDTVDWLVHNVPESNGRVGMTGSAYEGFTVVMALLDPHPALKVAAPESPMVDGWMGDDWFHYGAFRQGAFDYFVSQMTARGGGNDIPRRDADDYTNFLKAGSAGSFATQAGLDQYPFWQRMHAHPAYDAFWQGQALDKILAQRKPTVPMLWEQGLWDQEDMWGAIHAWQALKDADVKAPNTLVMGPWRHSGVNYNGSTLGPLEFEGDTAHQYRRDVFRPFFDEYLKPGSASVHLPDAIIYNTGDQKWDYYRSWPSVCESNCTGGLTPLYLADGHGLSFTHPAADGADSYVSDPAHPVPFISRPFAFAQSSRWKPWLVQDQREAESRPDVVTYETEVLDEPVRVSGVPVADLFAATSGTDSDWVVKLIDVQPAMTPDDPKMGGYELPVSMDIFRGRYRKDFAKPEALQPDATLHYHFTLPAVNHVFAKGHRIMVQIQSSWFPLYDRNPQKFVPNIFDAKPADYTVATQSIHHGGKEATSILLPVVKQKLGPEQKLISEEDLNSAVDHHHHHH	soluble
MDINLEYSLHDTQFFWQALSIRYHHAQRLKQLQRELAGFEQIKKFTLLPEAFSMEAGLITPTLKQRCKMIYHKYAHEINAMYNNLEHHHHHH	not soluble
VTNVSWLVTGSMSALSIPGLIFSLRSSHPNLNFTPYLTQSASRIVTMTSMATLSGVTPRNSDWGSEPEATPSHIQIESESDAYLIAPATLDFLARFARYDCSTPFSLALQCTKKPILVAPS	not soluble
MGSDKIHHHHHHMTLELCRLSLQQTQELLRLTDATLKNICSRRFSGEELYSEAIRRVLGGGGKRGPESIFLLIDGIGGTSRGWIFQLQAGELVRSSDEILVDADSVYSLGRLGSEVLVSNWRESFESIERYQVIFHPDIVKHIAKPIRNFVACQISGESNGALLAFNYAGEATEYDGDVLRGLSVVIGSLVTLSVMVRETEHAFIYTIEALARACEAAEESTGDHIVRVNRYAGALAAHMDLSPDFVEVISYSAQMHDVGKIRVPTAILLKPGPLDEAEERVMRLHPEFGEQILGDSPRLSVAREIALSHHENWDGSGYPRGLQGEAIPLAGRIVKLADVYDALRSRRSYKKALSHAEARAVFLNGDERITPRSHFDPRVLETFFRIEPLFERIYQSSRNQQV	not soluble
MHGLKRSLMIRTVCRGKATTAGADLPQSSQEIEVTTPKSENVPAKSANASTVYRPPYYRKPHQHHEPKHMLQEEFVNAGDASGAGVRVFDYYKTAEMVHSMPTIKEKIDFVSPYERPWTRAEKTWRRDWHPTLMATRKAWGIPPTPAHFDTLDYYKYLTKTRVENESLDDFYHGLRPPTADLQTSFQNTLKSMEFGDGINFSDEDTQKLFGSLIDDAMGGIAHNVSRLADHRVAYDVESEAFWVRSGFMFLYDEEEIGTRDVKRRLNNFPKFIGDDRRKLGELAFVHRDKLAAQVRSKEPSAPLHSFDSEDAKLPIFDTNYNFEETLFSPKVYNLWPDQEPLWQCPGYHADSGESHTYGILGVKSLRPLRKRIAHWMGWENENELESSEEAKQMLDDGARSQAIISMFTTLCAQAHTHGFTQYTDITRSFTSQLVLSDGINFWFAIGQLNTIAINVECDGFVNPRTNYIRIDGPYRLFDYCDKNGQYLSVQEEIDAENKVQRKIAPGLNEKVLERVTQMLMKQ	not soluble
